The numbers were not newly measured in patent US20180318303A1, “METHODS FOR TREATING MYELOPROLIFERATIVE DISORDERS” (Promedior, Inc., priority 2015, published 2018), which cites them from elsewhere.

For the data set the following is noted: in vivo.

On to “SAP: naturally occurring serum protein in mammals composed of five identical subunits, non-covalently associated in a disk-like complex”, for which the physiological half-life result is given as “twenty-four”.
